Target: Urease beta subunit (urea amidohydrolase) (UreB) of H. pylori (H. pylori, UniProt P69996 1-569)
Assay: crystal structure

Urease beta subunit (urea amidohydrolase) (UreB) of H. pylori, sequence (P69996 whole entry): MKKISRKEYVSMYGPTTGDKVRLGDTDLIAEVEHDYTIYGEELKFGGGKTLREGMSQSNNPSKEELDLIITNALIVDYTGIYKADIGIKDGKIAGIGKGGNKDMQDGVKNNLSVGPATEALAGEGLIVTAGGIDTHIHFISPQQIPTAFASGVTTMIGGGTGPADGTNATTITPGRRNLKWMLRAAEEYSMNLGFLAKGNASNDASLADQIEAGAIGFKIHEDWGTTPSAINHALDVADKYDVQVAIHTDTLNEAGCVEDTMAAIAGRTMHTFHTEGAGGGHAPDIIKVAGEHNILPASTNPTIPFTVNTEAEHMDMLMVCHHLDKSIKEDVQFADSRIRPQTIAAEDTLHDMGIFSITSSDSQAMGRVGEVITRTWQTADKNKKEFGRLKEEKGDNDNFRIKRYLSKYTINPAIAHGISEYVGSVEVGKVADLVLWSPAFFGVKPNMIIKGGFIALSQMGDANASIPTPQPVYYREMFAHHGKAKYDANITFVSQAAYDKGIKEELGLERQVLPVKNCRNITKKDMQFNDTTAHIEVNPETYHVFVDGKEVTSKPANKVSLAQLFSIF

B1: Urease alpha subunit (UreA) (urea amidohydrolase) of H. pylori (natural protein)
chain: MKLTPKELDKLMLHYAGELAKKRKEKGIKLNYVEAVALISAHIMEEARAGKKTAAELMQEGRTLLKPDDVMDGVASMIHEVGIEAMFPDGTKLVTVHTPIEANGKLVPGELFLKNEDITINEGKKAVSVKVKNVGDRPVQIGSHFHFFEVNRCLDFDREKTFGKRLDIASGTAVRFEPGEEKSVELIDIGGNRRIFGFNALVDRQADNESKKIALHRAKERGFHGAKSDDNYVKTIKE
binding result: binds

Source: article PMC6886524 (Journal of structural and functional genomics, 2015)
